Experimental data from the Human Domainome abundance scans (Beltran et al. 2025).

B1: Bromodomain adjacent to zinc finger domain protein 2B, residues 1927 to 1982; numbered along this chain, Q9UIF8 (parent)
chain: KSIMKVYCQICRKGDNEELLLLCDGCDKGCHTYCHRPKITTIPDGDWFCPACIAKA
B2: Zinc finger homeobox protein 3, residues 2244 to 2299; numbered along this chain, Q15911 (parent)
chain: SSRTRFTDYQLRVLQDFFDANAYPKDDEFEQLSNLLNLPTRVIVVWFQNARQKARK

Variants of: B1
Assay: abundance fitness (aPCA) (normalised: wild type 0, dead -1); higher = more abundant; growth selection in yeast, the domain comes from the species named
Conditions: Homo sapiens

Abundance fitness: each site, then its substitutions
S2: D 0.061; P -0.243; E 0.034; Q -0.073; C -0.181; N -0.506; A -0.084; R -0.077; M -0.23; V -0.156; I 0.051; T 0.019; K -0.1; H 0.085; W -0.379; F -0.155; Y -0.558; G 0.065
D15: I -0.221; H -0.429; C -0.122; E 0.113; A -0.234; K -0.038; G -0.099; F -0.118
K5: D -0.162; S -0.019; W -0.303; R -0.095; T -0.056; I -0.334; N -0.035; G -0.077; A -0.158; L -0.202; C -0.125; V -0.176; E -0.156; M -0.083; Q -0.113; F -0.444; P -0.198
Q9: N -0.041; P 0.004; T -0.063; S 0.07; A -0.108; G -0.038; C -0.091; D 0.028; W -0.203; R -0.195; F -0.099; K -0.146; L -0.103; Y 0.029; I -0.164; V -0.149; M -0.096
I10: K -0.131; S -0.055; Q -0.009; T -0.01; F -0.181; E 0.095; Y -0.135; C 0.089; N 0.266; W -0.03; L 0.004; V -0.051; G -0.148; M -0.047; H 0.079; P -0.479
V6: H -0.036; Y 0.171; T -0.028; I -0.068; L -0.076; E -0.092; D -0.007; A -0.132; S 0.014; N -0.124; R 0.036; F 0.064; G -0.045; M -0.064; C -0.208; P -0.143; Q -0.043; K 0.117
R12: V -0.079; D -0.021; W -0.256; M -0.05; P -0.89; F -0.23; Q -0.041; S 0.042; T -0.028; G -0.055; K 0.043; E 0.008; I 0.001; Y -0.183; C -0.163; A 0.008; H -0.187
G14: I -0.23; P -0.026; D -0.056; Y 0.079; M 0.002; A 0.011; C -0.171; K -0.063; T 0.046; R 0.018; Q -0.003; F -0.127; H -0.054; E -0.07; V 0.035; L -0.056; S 0.032
Y7: D 0.142; M -0.059; G -0.118; V -0.145; R -0.152; P -0.179; L -0.14; S -0.025; N 0.057; K -0.147; E -0.018; H -0.045; C -0.136; T -0.102; Q -0.043; A -0.09; F -0.086; I -0.197
I3: N 0.105; S -0.052; A 0.014; C -0.129; L -0.189; W -0.221; V -0.079; Y -0.327; Q 0.104; P -0.081; T -0.063; D 0.059; R -0.125; E -0.103; F -0.282; H -0.144; M -0.088
M4: H -0.009; V -0.138; L -0.145; S -0.161; C -0.054; A -0.316; P -0.183; K -0.127; E -0.184; G -0.325; I -0.068; N -0.169; R -0.157; Q -0.065; T -0.06
K13: Q -0.111; N -0.102; E -0.045; S -0.11; H -0.076; V -0.138; A -0.032; G -0.047; M -0.002; T -0.164; W -0.25; R -0.177; F -0.24; P -0.512; D -0.047; Y -0.271; I -0.136
C8: R -1.08; D -1; H -1.02; F -0.978; A -1.25; L -1.13; Q -0.661; P -0.686; M -0.807; E -0.836; G -0.916; I -1.34; N -1.11; W -1.17; Y -0.942; S -0.944; T -0.902
K1: A -0.398; L -0.693; Y -0.318; C -0.279; D -0.199; S -0.176; R -0.366; M -0.157; E -0.035; I -0.262; F -0.783; T -0.155; V -0.581
C11: W -1.21; G -1.1; E -0.808; H -0.85; M -1.08; P -0.767; V -1.16; K -0.887; T -1.14; N -1.04; I -0.912; S -0.997; L -1.01; R -0.933; A -1.03; F -0.961; Q -1.19; D -1.05

Variants of: B2
Assay: as above
Conditions: Homo sapiens

Abundance fitness of substitutions, site by site:
Q52: C 0.002; L -0.107; P -0.263; T -0.036; A -0.008; M -0.142; H -0.092; Y -0.14; W -0.204; V 0.128; N -0.144; S -0.023; F -0.21; D 0.239; R -0.135; K -0.077
R55: L -0.001; W -0.302; T -0.043; V -0.048; N -0.218; D -0.104; Y -0.073; C -0.229; K 0.005; G -0.128; P 0.051; Q 0.049; F -0.069; A -0.172; H 0.104; M -0.211; I -0.093; S 0.142
A50: G -0.298; T -0.08; E -0.095; R -0.061; P -1.01; M 0.047; Q -0.197; C -0.047; Y -0.196; I -0.241; H -0.253; K -0.09; D -1.01; S -0.084; V -0.322; W -0.496; N 0.009; L -0.159
A54: G 0.081
K56: Q -0.163; N 0.103; R -0.028; T -0.032; M -0.045; I -0.302; A 0.063; F -0.089; P 0.004; D -0.026; G -0.029; H -0.053; Y -0.158
R51: L -0.137; S -0.256; C -0.168; G -0.606; H -0.382
N49: Y -0.497; W -0.252
K53: Y -0.12; W -0.083; N 0.138; P -0.237; V -0.085; C -0.029; A 0.032; R -0.116; I -0.019; M 0.008; D 0.202; Q -0.109; L -0.013; E 0.162; H 0.013; T -0.008; G -0.005; S 0.062
